Assay [1] concerns the target Fusion of EfmRseP (1–221) and LpRseP (222–425) (Enterococcus faecium P21 | Lactiplantibacillus plantarum WCFS1) (UniProt I3U2R6). Put plainly: flow cytometry on cells; noninduced L. plantarum cells expressing the RseP variant, 1 μM FITC-labeled EntK1 in 100 μM triammonium citrate pH 6.5, 20 min, room temperature; median fluorescence intensity relative to cells expressing EfmRseP (rMFI), triplicate. On the technique in general: Flow cytometry measures light scatter and fluorescence of single cells or particles in a stream.

Assay [2] addresses Fusion of LpRseP (1–201, 328–425) and EfmRseP (202–327) (Lactiplantibacillus plantarum WCFS1 | Enterococcus faecium P21) (UniProt I3U2R6). The description is as above.
In assay [3] the target is Fusion of EfmRseP (1–325) and LpRseP (326–425) (Enterococcus faecium P21 | Lactiplantibacillus plantarum WCFS1) (UniProt I3U2R6). Described as above.
The target of assay [4] is EfmRseP with substitution N364A (Enterococcus faecium P21) (UniProt I3U2R6). The description is as above.
In assay [5] the target is EfmRseP with substitution H22A (Enterococcus faecium P21) (UniProt I3U2R6). The assay is described as above.
Assay [6] concerns the target EfmRseP with substitution P367A (Enterococcus faecium P21) (UniProt I3U2R6). The description is as above.
In assay [7] the target is EfmRseP with substitution D372A (Enterococcus faecium P21) (UniProt I3U2R6). Described as above.
The target of assay [8] is RseP from Lactiplantibacillus plantarum WCFS1, C-terminal 6× His-tag (Lactiplantibacillus plantarum WCFS1). The description is as above.
The target of assay [9] is Truncation of EfmRseP (1–39, 139–422) Δ40–138 (Enterococcus faecium P21) (UniProt I3U2R6). The description is as above.
The target of assay [10] is Fusion of LpRseP (1–171, 326–425) and EfmRseP (172–325) (Lactiplantibacillus plantarum WCFS1 | Enterococcus faecium P21) (UniProt I3U2R6). The description is as above.
Assay [11] deals with RseP from Enterococcus faecium P21, C-terminal 6× His-tag (Enterococcus faecium P21) (UniProt I3U2R6). Described as above.
The target of assay [12] is EfmRseP with substitution H18A (Enterococcus faecium P21) (UniProt I3U2R6). The assay is described as above.
The target of assay [13] is EfmRseP with the triple alanine substitution of the HExxH motif (Enterococcus faecium P21) (UniProt I3U2R6). Described as above.
The target of assay [14] is EfmRseP with substitution P369A (Enterococcus faecium P21) (UniProt I3U2R6). The assay is described as above.
The target of assay [15] is EfmRseP with substitution E19A (Enterococcus faecium P21) (UniProt I3U2R6). The assay is described as above.
Assay [16] has as its target RseP from Staphylococcus aureus ATCC 14458, without His-tag (Staphylococcus aureus ATCC 14458).
The target of assay [17] is RseP from Staphylococcus haemolyticus, without His-tag (Staphylococcus haemolyticus).
For assay [18], the target named is RseP from Staphylococcus arlettae LMGT 4134, without His-tag (Staphylococcus arlettae LMGT 4134).
Assay [19] concerns the target RseP from Lactococcus lactis IL1403, without His-tag (Lactococcus lactis IL1403).
Assay [20] concerns the target RseP from Enterococcus faecium P21, without His-tag (Enterococcus faecium P21) (UniProt I3U2R6).
Assay [21] concerns the target RseP from Lactiplantibacillus plantarum WCFS1, without His-tag (Lactiplantibacillus plantarum WCFS1).
Assay [22] addresses RseP from Enterococcus faecalis V583, without His-tag (Enterococcus faecalis V583) (UniProt Q9RPP2).

The values below come from paper PMC9672952.

A value given as a limit tells only on which side of the number the result lay.

On to FITC-labeled Enterocin K1 (peptide), for which the rMFI % (relative median fluorescence intensity) in [1] is 37.6%; in assay [2], 54.8%; in [3] it was 97.6%; in assay [4], 83.4%; in assay [5] it was 59%; in [6], 89.1%. Besides, the rMFI % (relative median fluorescence intensity) stood at 80.6% in assay [7]; 0.41% in assay [8]; 7.4% in assay [9]; 78% in assay [10]; 100% in [11]; 61.6% in assay [12]. The results for the rMFI % (relative median fluorescence intensity) in assay [13], in [14] and in assay [15] were 0.5%, 84.4% and 65.4%, respectively. Besides, the MIC50 of FITC-EntK1 (growth inhibition, microtiter plate) towards L. plantarum expressing this RseP; footnote: low expression may contribute in assay [16] and in [18] was more than 20 µM each time. The MIC50 of FITC-EntK1 (growth inhibition, microtiter plate) towards L. plantarum expressing this RseP was more than 20 µM in assay [17]; more than 20 µM in assay [19]; 0.15 µM in assay [20]; more than 20 µM in [21]; 0.6 µM in assay [22].
